From patent publication CN111662385A

Target: human GPC3 recombinant protein (human) (UniProt P51654)
Assay: BLI (ForteBio), antibody 5 ug/ml on anti-human IgG Fc sensor, GPC3 62.5-1000 nM

hGC33(Codrituzumab) (antibody)
Kd: 1.74 nM
koff: 0.00024 s⁻¹
kon: 141000 M⁻¹ s⁻¹
